The target of the experiment is SARS-CoV-2 spike protein extracellular domain (residues 14 to 1209, S1 and S2 without the transmembrane domain) (SARS-CoV-2) (UniProt P0DTC2). As to the kind of experiment: SEC.

A word on the stoichiometry N: it is the number of molecules, sites or subunits per partner or assembly. Turning to “SARS-CoV-2 spike protein extracellular domain (residues 14 to 1209, S1 and S2 without the transmembrane domain) (from UniProt P0DTC2 14-1209) (domain or fragment)”, the stoichiometry N amounted to 3.

For the origin of these results see PMC8428573.
